Where a chain is given by its changes, count along the chain named. Values belong to the binder of their own block, whether it stands above or below them.
Key:
[1] = target: T1, human MMP-12 (human, UniProt P39900 106-470, limits assumed); assay: cell-based or functional assay
[2] = target: T1, human MMP-12; assay: BIACORE, coated Fab
[3] = target: T2, murine MMP-12 (mouse, UniProt P34960 110-473, limits assumed); assay: BIACORE, coated Fab
T2 construct: also called mouse MMP12; mMMP12

[4] = target: T1, human MMP-12; assay: cell-based or functional assay; remark: listed apart in the source
[5] = target: T2, murine MMP-12; assay: cell-based or functional assay
[6] = target: T1, human MMP-12; assay: IC50 against substrate concentration, enzyme inhibition, FIG. 3
[7] = target: T2, murine MMP-12; assay: as above
[8] = target: T1, human MMP-12; assay: inhibition assay of MMP-12 activity ('IC50 or Ki')
[9] = target: T1, human MMP-12; assay: Ki from inhibition of MMP-12 enzyme activity
[10] = target: T1, human MMP-12; assay: cell-based or functional assay; remark: listed apart in the source

T2 sequence (P34960 110-473 limits assumed): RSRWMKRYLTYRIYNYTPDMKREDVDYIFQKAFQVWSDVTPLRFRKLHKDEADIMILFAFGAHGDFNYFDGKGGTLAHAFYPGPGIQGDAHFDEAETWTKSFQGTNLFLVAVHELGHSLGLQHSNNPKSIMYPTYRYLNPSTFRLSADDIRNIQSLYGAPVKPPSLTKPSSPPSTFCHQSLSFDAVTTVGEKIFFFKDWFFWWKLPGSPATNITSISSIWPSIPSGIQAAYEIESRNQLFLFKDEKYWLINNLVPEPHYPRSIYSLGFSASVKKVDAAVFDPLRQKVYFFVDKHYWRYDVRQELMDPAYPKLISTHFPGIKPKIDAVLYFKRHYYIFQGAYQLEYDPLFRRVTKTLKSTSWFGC
T1 sequence (P39900 106-470 limits assumed): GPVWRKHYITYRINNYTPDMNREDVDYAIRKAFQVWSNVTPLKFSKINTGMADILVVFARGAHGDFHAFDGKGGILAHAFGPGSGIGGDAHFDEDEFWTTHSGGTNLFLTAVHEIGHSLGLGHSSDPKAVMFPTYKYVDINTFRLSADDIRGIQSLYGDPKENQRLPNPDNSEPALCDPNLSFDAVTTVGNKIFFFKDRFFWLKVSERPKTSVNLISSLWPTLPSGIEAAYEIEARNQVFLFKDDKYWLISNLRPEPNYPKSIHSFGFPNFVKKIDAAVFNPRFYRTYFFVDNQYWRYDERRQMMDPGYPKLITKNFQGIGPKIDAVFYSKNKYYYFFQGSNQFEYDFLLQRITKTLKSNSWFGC

B1: 539B-M0007-H06 (Fab, V domains shown)
VH: EVQLLESGGGLVQPGGSLRLSCAASGFTFSHYWMHWVRQAPGKGLEWVSSISSSGGMTYYADSVKGRFTISRDNSKNTLYLQMNSLRAEDTAVYYCTTADYGYYYGMDVWGQGTTVTVSS
VL: DIQMTQSPGTLSLSSGERATLSCRASQSVSSNYLAWYQQKRGQAPRLLIYGASSRATGVPGRFSGSGSGTDFTLTISRLEPEDFAVYYCQQYGSSPRTFGQGTKLEIK
% of activity left with 100 nM in assay 04 Oct. 2006 [1]: 55.5%

B2: 539B-M0008-H09 Fab (Fab, V domains shown)
VH: EVQLLESGGGLVQPGGSLRLSCAASGFTFSDYNMHWVRQAPGKGLEWVSYIGPSGGYTHYADSVKGRFTISRDNSKNTLYLQMNSLRAEDTAVYYCAKDIRGAYSSGLFDYWGRGTLVTVSS
VL: DIQMTQSPSSLSASVGDRVTITCRANQSIYTYLNWYQQKPGKAPELLIYAASSLQSGVPSRFSGSGSGTDFTLTISSLQPEDFATYYCQQAGIFGQGTKLEIK
notes: N-glycosylation site in LC CDR1; also called M08H09
Kd [2]: 17.7 nM
koff [3]: 0.004 s⁻¹
% of activity left with 100 nM in assay 04 Oct. 2006 [1]: 4.6%
IC50hu [4]: 12.1 nM
IC50 m [5]: < 10 nM (not printed; inferred)

B4: 539B-M0008-H09 (format not stated) (antibody, V domains shown)
VH: B2 VH
VL: B2 VL
notes: Same clone as m49 and m54; also called M08H09
Ki [6]: 2.8 nM
Ki [7]: 2.2 nM

B8: 539B-M0063-B01 (Fab, V domains shown)
VH: B2 VH with D31W, N33W, H35G, Y50S, G52S, H59F
VL: B2 VL
Kd [2]: 0.171 nM
koff [3]: 0.0025 s⁻¹
IC50hu [4]: 0.7 nM
IC50 m [5]: > 10 nM (not printed; inferred)

B11: 539B-M0063-C07 (Fab, V domains shown)
VH: B2 VH with D31P, N33W, H35S, Y50G, G52S, Y57I, H59F
VL: B2 VL
Kd [2]: 2.29 nM
koff [3]: 0.002 s⁻¹
IC50hu [4]: 1 nM
IC50 m [5]: < 10 nM (not printed; inferred)

B15: 539B-M0063-B11 (Fab, V domains shown)
VH: B2 VH with D31P, N33W, Y50G, Y57L, H59F
VL: B2 VL
Kd [2]: 0.12 nM
koff [3]: 0.00311 s⁻¹
IC50hu [4]: 0.7 nM
IC50 m [5]: > 10 nM (not printed; inferred)

B16: 539B-M0015-F02 (Fab, V domains shown)
VH: EVQLLESGGGLVQPGGSLRLSCAASGFTFSRYGMTWVRQAPGKGLEWVSGISPSGGNTWYADSVKGRFTISRDNSKNTLYLQMNSLRAEDTAVYYCTSHDYGDHYGMDVWGQGTLVTVSS
VL: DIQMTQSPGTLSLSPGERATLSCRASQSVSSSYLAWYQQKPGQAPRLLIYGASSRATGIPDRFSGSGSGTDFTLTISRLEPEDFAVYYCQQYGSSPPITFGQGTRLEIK
% of activity left with 100 nM in assay 04 Oct. 2006 [1]: 84.1%

B17: 539B-M0011-H11 Fab (Fab, V domains shown)
VH: EVQLLESGGGLVQPGGSLRLSCAASGFTFSWYNMWWVRQAPGKGLEWVSYIYPSGGNTGYADSVKGRFTISRDNSKNTLYLQMNSLRAEDTAVYYCAVFEYSSSGPQGYWGQGTLVTVSS
VL: QSALTQPPSVSVAPGQTARITCGGNNIGTKSVHWYQQKSGQAPVLVVYDNSDRPSGIPERFSGSNSGNTATLTISRVEAGDEADYYCQVWDNSIDHVVFGGGTKLTVL
% of activity left with 100 nM in assay 04 Oct. 2006 [1]: 12.2%

B18: 539A-M0013-D11 IgG (antibody, V domains shown)
VH: EVQLLESGGGLVQPGGSLRLSCAASGFTFSSYPMWWVRQAPGKGLEWVSGIVPSGGVTIYADSVKGRFTISRDNSKNTLYLQMNSLRAEDTAVYYCARVGWLASSDYYYYMDVWGKGTTVTVSS
VL: DIQMTQSPSSLSASVGDRITISCQASQDIDNYLNWYQQRSGKAPKLLIYDAYNLKAGVPSRFRGSRSGTDFFLTISSLQPEDFATYYCQQSYRAPLTFGGGTKVEIK
Ki [9]: 4.97 nM
IC50 (nM), IgGs [10]: 13.3 nM

B19: 539A-M0016-A11 IgG (antibody, V domains shown)
VH: EVQLLESGGGLVQPGGSLRLSCAASGFTFSEYQMAWVRQAPGKGLEWVSSIYPSGGHTHYADSVKGRFTISRDNSKNTLYLQMNSLRAEDTAVYYCAKESYYDFWSGYYFDYWGQGTLVTVSS
VL: DIQMTQSPSSLSASVRDRVTITCRTSQNINTYLNWYYQAPGRAPKLLIFGVSSLHRGVSSRFSGSGDGTEFTLTISSLQPEDIGTYFCQQSYSSPWTFGQGTKVEIK
notes: also called M0016-A11 IgG a-huMMP12
Ki [9]: 0.7 nM
IC50 (nM), IgGs [10]: 2.1 nM

B20: 539A-M0013-H06 IgG (antibody, V domains shown)
VH: EVQLLESGGGLVQPGGSLRLSCAASGFTFSAYEMDWVRQAPGKGLEWVSGISSSGGPTYYADSVKGRFTISRDNSKNTLYLQMNSLRAEDTAVYYCARVGGWELLQDYYYYMDVWGKGTTVTVSS
VL: DIQMTQSPATLSLSPGERATLSCRASHSVDNLAWYQQQPGQAPRLLIYDVSYRATGIPARFSGSGSGTDFTLTISSLEPEDFAVYYCQQRNNWPLSLTFGGGTKVEIK
Ki [9]: 2.7 nM
IC50 (nM), IgGs [10]: 5.3 nM

B21: 539A-M0013-G12 IgG (antibody, V domains shown)
VH: EVQLLESGGGLVQPGGSLRLSCAASGFTFSWYHMFWVRQAPGKGLEWVSGISSSGGYTHYADSVKGRFTISRDNSKNTLYLQMNSLRAEDTAVYYCATREGMLYDYVWGENYMDVWGKGTTVTVSS
VL: DIQMTQSPSSLSASVGDRVTITCQASQDTYNRLHWYQQKPGKAPKLLIYDAVNLNRGVPSRFRGSGSGTNYILIITNLQPEDTATYYCQHSDDLSLAFGGGTKVEIK
notes: also called M0013-G12 IgG a-huMMP12
Ki [9]: 2.05 nM
IC50 (nM), IgGs [10]: 4.1 nM

Second part, the binder after the results:

IC50hu [4]: 2.4 nM
IC50 m [5]: < 10 nM (not printed; inferred)
B3: 539B-M0071-D09 (Fab, V domains shown)
VH: B2 VH with D31P, N33W, Y50G, G52S, P53S, Y57D, H59L
VL: B2 VL

Kd [2]: 1.58 nM
koff [3]: 0.00654 s⁻¹
IC50hu [4]: 0.8 nM
IC50 m [5]: > 10 nM (not printed; inferred)
B5: 539B-M0063-G01 (Fab, V domains shown)
VH: B2 VH with D31W, N33W, H35V, Y50S, Y57D, H59Y
VL: B2 VL

Ki [8]: < 0.3 nM
B6: 539B-M131A06 (antibody, V domains shown)
VH: B2 VH with D31W, N33W, Y50G, G52S, Y57M, H59M, K98R, R101V, A103P, S106A
VL: B2 VL
notes: N-glycosylation site in LC CDR1; also called M0131-A06

Kd [2]: 0.203 nM
koff [3]: 0.00025 s⁻¹
IC50hu [4]: 0.7 nM
IC50 m [5]: < 10 nM (not printed; inferred)
B7: 539B-M0067-F06 (Fab, V domains shown)
VH: B2 VH with D31W, H35S, Y50R, G52S, Y57D, H59G
VL: B2 VL

Kd [2]: 1.03 nM
IC50hu [4]: 0.2 nM
IC50 m [5]: < 10 nM (not printed; inferred)
B9: 539B-M0071-H03 (Fab, V domains shown)
VH: B2 VH with D31P, N33W, Y50G, Y57P, H59F, V64I
VL: B2 VL

Kd [2]: 2.19 nM
IC50hu [4]: 0.7 nM
B10: 539B-M0065-H05 (Fab, V domains shown)
VH: B2 VH with D31Y, N33G, H35G, Y50V, G52S, P53S, Y57F, H59F
VL: B2 VL

Kd [2]: 0.62 nM
IC50hu [4]: 0.7 nM
IC50 m [5]: < 10 nM (not printed; inferred)
B12: 539B-M0067-B06 (Fab, V domains shown)
VH: B2 VH with D31W, N33W, Y50G, G52V, P53S, Y57T, H59I
VL: B2 VL

Kd [2]: 1.1 nM
koff [3]: 0.01 s⁻¹
IC50hu [4]: 0.3 nM
IC50 m [5]: > 10 nM (not printed; inferred)
B13: 539B-M0071-A01 (Fab, V domains shown)
VH: B2 VH with D31E, N33W, H35T, Y50G, G52S, Y57M, H59F
VL: B2 VL

Kd [2]: 6.97 nM
IC50hu [4]: 1.6 nM
IC50 m [5]: ~10 nM (not printed; inferred)
B14: 539B-M0069-C02 (Fab, V domains shown)
VH: B2 VH with D31Y, Y50G, Y57G, H59L
VL: B2 VL

Reference: patent publication US8114968 (DYAX, dated 2012)
